The text below walks through data of publication PMC3121528 (The Journal of Biological Chemistry, 2011).

The target in data set [1] is FLAG-tagged B14 F130K (vaccinia virus strain Western Reserve) (UniProt P24772). Put plainly: co-IP.
Data set [2] addresses FLAG-tagged B14 Y35E (vaccinia virus strain Western Reserve), P24772. Put plainly: co-IP. The settings on record: remark: other sources report otherwise.
The data set “SEC-MALS” deals with the molecule itself. Put plainly: SEC-MALS.

On to “N-terminally HA-tagged IκB kinase β (IKKβ) (from UniProt O14920 1-756) (enzyme)”, for which the co-precipitated IKKβ relative to wild-type B14 (% of wild-type B14) in data set [1] stood at 1.

B1: N-terminally HA-tagged IκB kinase β (IKKβ), O14920 1-756 (enzyme)
chain: MSWSPSLTTQTCGAWEMKERLGTGGFGNVIRWHNQETGEQIAIKQCRQELSPRNRERWCLEIQIMRRLTHPNVVAARDVPEGMQNLAPNDLPLLAMEYCQGGDLRKYLNQFENCCGLREGAILTLLSDIASALRYLHENRIIHRDLKPENIVLQQGEQRLIHKIIDLGYAKELDQGSLCTSFVGTLQYLAPELLEQQKYTVTVDYWSFGTLAFECITGFRPFLPNWQPVQWHSKVRQKSEVDIVVSEDLNGTVKFSSSLPYPNNLNSVLAERLEKWLQLMLMWHPRQRGTDPTYGPNGCFKALDDILNLKLVHILNMVTGTIHTYPVTEDESLQSLKARIQQDTGIPEEDQELLQEAGLALIPDKPATQCISDGKLNEGHTLDMDLVFLFDNSKITYETQISPRPQPESVSCILQEPKRNLAFFQLRKVWGQVWHSIQTLKEDCNRLQQGQRAAMMNLLRNNSCLSKMKNSMASMSQQLKAKLDFFKTSIQIDLEKYSEQTEFGITSDKLLLAWREMEQAVELCGRENEVKLLVERMMALQTDIVDLQRSPMGRKQGGTLDDLEEQARELYRRLREKPRDQRTEGDSQEMVRLLLQAIQSFEKKVRVIYTQLSKTVVCKQKALELLPKVEEVVSLMNEDEKTVVRLQEKRQKELWNLLKIACSKVRGPVSGSPDSMNASRLSQPGQLMSQPSTASNSLPEPAKKSEELVAEAHNLCTLLENAIQDTVREQDQSFTALDWSWLQTEEEEHSCLEQAS
With B1, the co-precipitated IKKβ relative to wild-type B14 (fold of wild-type B14) in data set [2] is 0.5.

B2: N-terminally His6-tagged wild-type B14 (vaccinia virus strain Western Reserve) (natural protein)
chain: MTANFSTHVFSPQHCGCDRLTSIDDVRQCLTEYIYWSSYAYRNRQCAGQLYSTLLSFRDDAELVFIDIRELVKNMPWDDVKDCAEIIRCYIPDEQKTIREISAIIGLCAYAATYWGGEDHPTSNSLNALFVMLEMLNYVDYNIIFRRMN
As for B2, in “SEC-MALS”, the dissociation constant (Kd) is 20.6 ± 0.9 µM and the “stoichiometry N” value was determined as 2.
